Data as given in article doi:10.1101/2021.02.07.430097, “Molecular and structural mechanisms of ZZ domain-mediated cargo recognition by autophagy receptor Nbr1” (bioRxiv, 2021).

B1: Ams1 (full length) of the Ams1-Nbr1 fusion protein (enzyme, S. pombe, UniProt Q9UT61 2-1077, looked up)
chain: TLFPVLNNTPVGKQVDSIYESRLDQFLSEGQYRDFNLPSVYDHARIDNPSGDVNNDLSKGFVDLKVYRVPDLSRPSFNEVVGHKKFDETASKGDTFGPSWATFWFEVHIRLPKSWAKYEQVIFQWNCDNEGLVYSQDGVPLQAFSGSERTDFILPDSWKTTEDTFYIEMACNGMFGTGAGSQIAPPDPNRYFTLTKADLVAPNLPAMALAYDFLLMQQCVKQLPSNCWQKYKARQICNDIMNTFHPNDLSTINECRNLAKAFLGNDIDSEAVFEKNNDKANVFAIGHCHIDTAWLWPFAETRRKIVRSWATQMNIMDRYPEYQFVCSQALQYLWLKEDHPDVFEKLKEYVNQNKFIPIGGSWVEHDTNIPNGESLIRQFLLGQHFFEKEFGVRCRTFWLPDTFGYSSQIPQICRLCGMDRFLTQKLSWNNINSFPTSTFNWVALDGSQVICHMPPANTYTADTNVNDVLHSIDQHKNLVNDQAGLLVFGIGDGGGGPTPEMLEKLRRCKGIANTVGYLPNVKLGNTVDEFFDGILKRTNAGQTLPSWNGELYFEFHRGTYTTQAELKKLMRKVEIALHDAEYVSTLASIFSKDYSYPKESLQDLWRDTLLCQFHDVLPGSCIEMVYKDAIPIMSKVLKNTEALLWQAIEQLGFKKASSSDNKEQLCLLNTLPWNVRGVITETEENKLVYFESCDGKGILTAAHTSLKHPAAAYQKDDNFILVNDHLRVTIAPNGLILSLFDLHKEREILDLKSGKNHAGANQYVLFEDTPLSWQAWDTEVFSLEKYEVLDKGKVSIKESGPLRASVVVDIPISELSHMKATISLEGYNDCSEFTGVNFTCEVDWHESCKFLKVEFPVDIHSEFASYETQFGITKRPTHYNTSWDVAKFEVCHQKFADYSDFTYGVSVLNDCKYGFSTHGNLMRLSLLRSPKQPDAHADMGKHTIRYAVYPHSKPLDSSTVRAAHKFNSNFRLLTRASDTANLDIFDAFQLVGEPNVILSHIKMAEKGKSIILRVYESLGGKSRARLVIKSLTVASVTKCNGLEEDLEELCTLKSNDYYEVPIELRAFEIATFKVNL
notes: S. pombe alpha-mannosidase Ams1 (SPAC513.05), full length; the first methionine is removed in vivo, T2 is the most N-terminal residue in the density map; residues 2-1077 are in the model; written as a molecule of its own for the pair; also called Ams1_1; Ams1_3; source: S. pombe, Pnmt1 promoter, purified (GFP-Trap beads, released by 3C protease)
B2: Nbr1(53-180) of the Ams1-Nbr1 fusion protein (domain or fragment, S. pombe, UniProt Q9P792 53-180, looked up)
chain: PTLRSSSVACNTCLKIIRNDSFHCTKCFDFDVCRDCYAKQAFLHPCPKPHFVLVRSSIPSVASLTCSVNSMSVSPQSNFMYAICDHCEQPIHNVRYKCSVCDDYDICESCLTDNSHSNTHAFVRITKA
notes: S. pombe Nbr1 residues 53-180 (ZZ1 and ZZ2); residues 59-108 are in the model; written as a molecule of its own for the pair; also called Nbr1-ZZ1; ZZ1; source: S. pombe, Pnmt1 promoter, purified (GFP-Trap beads, released by 3C protease); not shown: MBP, C-terminal, kept; GFP, C-terminal, cleaved

Experiments:
[1] = target: the molecule itself; test: cryo-EM structure; Ams1-linker-Nbr1(53-180)-MBP fusion protein purified from S. pombe; 2.4 Å, D2 symmetry
[2] = target: B1; test: as above; conditions: both partners purified

| Binder | stoichiometry N [1] | stoichiometry N [2] |
| --- | --- | --- |
| B1 | 4 | – |
| B2 | – | 4 Nbr1-ZZ1 molecules per Ams1 tetramer |
